From patent US20170002081A1

What was measured:
[1] = target: human CSF-1R, full length, on cells (human) (UniProt P07333); test: displacement of 1.5 nM ^125I-H27K15 (competitor) on EL4-CSF-1R cells
[2] = target: CSF-1R20-512-Fc (R&D Systems cat. 329-MR) (human) (UniProt P07333); test: competition ELISA, co-incubation: coated Fc-D1-D5 human CSF-1R, mAb and biotinylated CSF-1(1-444) together 1 hour; streptavidin-HRP
[3] = target: human CSF-1R, full length, on cells (human) (UniProt P07333); test: displacement of ^125I-H27K15 on EL4-CSF-1R cells
[4] = target: CSF-1R20-512-Fc (R&D Systems cat. 329-MR) (human) (UniProt P07333); test: competition ELISA with biotinylated CSF-1(1-444) on coated CSF-1R-Fc, saturation doses, pre-, co- or post-incubation
[5] = target: human CSF-1R, full length, on cells (human) (UniProt P07333); test: displacement of 1.5 nM ^125I-H27K15 (competitor) on EL4-CSF-1R cells, Cheng-Prusoff
[6] = target: CSF-1R20-512-Fc (R&D Systems cat. 329-MR) (human) (UniProt P07333); test: competition ELISA, post-incubation: coated Fc-D1-D5 human CSF-1R, biotinylated CSF-1(1-444) 1 hour, then mAb 1 hour; streptavidin-HRP
[7] = target: CSF-1R20-512-Fc (R&D Systems cat. 329-MR) (human) (UniProt P07333); test: competition ELISA, pre-incubation: coated Fc-D1-D5 human CSF-1R, mAb 1 hour, then biotinylated CSF-1(1-444) 1 hour; streptavidin-HRP

Row | IC50 [1] [nM] | IC50 (read off the curve) [2] [µg/mL] | Ki [3] [nM] | decrease of the CSF-1 binding to CSF-1R (%) [4] [%] | Ki [5] [nM] | IC50 (read off the curve) [6] [µg/mL] | IC50 (read off the curve) [7] [µg/mL] | Substance
1 | 2.18 | 1 | > 1 | 30 to 40 | 1.28 | 0.6 | 0.5 | mAb 3291 (murine IgG1, clone 61701, R&D Systems MAB3291) (antibody)
2 | 3.02 |  | > 1 |  | 1.78 |  |  | mAb JF14 (murine IgG1, Santa Cruz sc-80174) (antibody)
